Data published in patent US20240352133A1.

How the values were obtained:
[1] = target: Recombinant human his-tagged IGF 1R extracellular domain protein (human) (UniProt P08069); assay: SPR, captured antibody, pH 7.4
[2] = target: Recombinant human his-tagged IGF 1R extracellular domain protein (human) (UniProt P08069); assay: SPR, captured antibody, dissociation at pH 6

| Binder | Kd [1] | koff [1] | kon [1] | Kd [2] | koff [2] | kon [2] |
| --- | --- | --- | --- | --- | --- | --- |
| VRDN-03107 (antibody, V domains shown) VH: QVQLVESGGGVVQPGRSLRLSCAASGFTFSSYSMHWVRQAPGKGLEWVAIIWFDGSSKYYADSVKGRFTISRDNSKNTLYLQMNSLRAEDTAVYYCARELGRRYFDIWGRGTLVTVSS VL: EIVMTQSPATLSVSPGERATLSCRASQGVSSYLAWYQQKPGQAPRLLIYGASTRATGIPARFSGSGSGTEFTLTISSLQSEDFAVYYCQQRSRWPPWTFGQGTKLEIK | 2.69 nM | 0.000156 s⁻¹ | 58000 M⁻¹ s⁻¹ | 1.42 nM | 0.000344 s⁻¹ | 242000 M⁻¹ s⁻¹ |
| VRDN-03108 (antibody, V domains shown) VH: QVQLVESGGGVVQPGRSLRLSCAASGFTFSSYSMHWVRQAPGKGLEWVAIIWFDGSSKYYVDSVKGRFTISRDNSKNTLYLQMNSLRAEDTAVYYCARELGRRYFDIWGRGTLVTVSS VL: EIVMTQSPATLSVSPGERATLSCRASQGVSSYLAWYQQKPGQAPRLLIYGASTRATGIPARFSGSGSGTEFTLTISSLQSEDFAVYYCQQRSRWPPWTFGQGTKLEIK | 3.97 nM | 0.000195 s⁻¹ | 49000 M⁻¹ s⁻¹ | 1.85 nM | 0.000413 s⁻¹ | 224000 M⁻¹ s⁻¹ |
| VRDN-03109 (antibody, V domains shown) VH: QVQLVESGGGVVQPGRSLRLSCAASGFTFSSYSMHWVRQAPGKGLEWVAIIWFDGSSKYYPGSVKGRFTISRDNSKNTLYLQMNSLRAEDTAVYYCARELGRRYFDIWGRGTLVTVSS VL: EIVMTQSPATLSVSPGERATLSCRASQGVSSYLAWYQQKPGQAPRLLIYGASTRATGIPARFSGSGSGTEFTLTISSLQSEDFAVYYCQQRSRWPPWTFGQGTKLEIK | 6.74 nM | 0.000286 s⁻¹ | 42500 M⁻¹ s⁻¹ | 2.72 nM | 0.00049 s⁻¹ | 180000 M⁻¹ s⁻¹ |
| VRDN-03110 (antibody, V domains shown) VH: QVQLVESGGGVVQPGRSLRLSCAASGFTFSDYTMHWVRQAPGKGLEWVAIIWFDGSSKYYADSVKGRFTISRDNSKNTLYLQMNSLRAEDTAVYYCARELGRRYFDIWGRGTLVTVSS VL: EIVMTQSPATLSVSPGERATLSCRASQGVSSYLAWYQQKPGQAPRLLIYGASTRATGIPARFSGSGSGTEFTLTISSLQSEDFAVYYCQQRSRWPPWTFGQGTKLEIK | 3.45 nM | 0.000209 s⁻¹ | 60500 M⁻¹ s⁻¹ | 1.7 nM | 0.000378 s⁻¹ | 223000 M⁻¹ s⁻¹ |
| VRDN-03111 (antibody, V domains shown) VH: QVQLVESGGGVVQPGRSLRLSCAASGFTFSDYTMHWVRQAPGKGLEWVAIIWFDGSSKYYVDSVKGRFTISRDNSKNTLYLQMNSLRAEDTAVYYCARELGRRYFDIWGRGTLVTVSS VL: EIVMTQSPATLSVSPGERATLSCRASQGVSSYLAWYQQKPGQAPRLLIYGASTRATGIPARFSGSGSGTEFTLTISSLQSEDFAVYYCQQRSRWPPWTFGQGTKLEIK | 4.71 nM | 0.000362 s⁻¹ | 77000 M⁻¹ s⁻¹ | 2.06 nM | 0.000479 s⁻¹ | 233000 M⁻¹ s⁻¹ |
| VRDN-03112 (antibody, V domains shown) VH: QVQLVESGGGVVQPGRSLRLSCAASGFTFSDYTMHWVRQAPGKGLEWVAIIWFDGSSKYYPGSVKGRFTISRDNSKNTLYLQMNSLRAEDTAVYYCARELGRRYFDIWGRGTLVTVSS VL: EIVMTQSPATLSVSPGERATLSCRASQGVSSYLAWYQQKPGQAPRLLIYGASTRATGIPARFSGSGSGTEFTLTISSLQSEDFAVYYCQQRSRWPPWTFGQGTKLEIK | 2.97 nM | 0.000322 s⁻¹ | 109000 M⁻¹ s⁻¹ | 2.74 nM | 0.000463 s⁻¹ | 169000 M⁻¹ s⁻¹ |
| VRDN-03113 (antibody, V domains shown) VH: QVQLVESGGGVVQPGRSLRLSCAASGFTFSDHYMDWVRQAPGKGLEWVAIIWFDGSSKYYADSVKGRFTISRDNSKNTLYLQMNSLRAEDTAVYYCARELGRRYFDIWGRGTLVTVSS VL: EIVMTQSPATLSVSPGERATLSCRASQGVSSYLAWYQQKPGQAPRLLIYGASTRATGIPARFSGSGSGTEFTLTISSLQSEDFAVYYCQQRSRWPPWTFGQGTKLEIK | 2.76 nM | 0.00388 s⁻¹ | 1.41e+06 M⁻¹ s⁻¹ | 2.48 nM | 0.00191 s⁻¹ | 771000 M⁻¹ s⁻¹ |
| VRDN-03114 (antibody, V domains shown) VH: QVQLVESGGGVVQPGRSLRLSCAASGFTFSDHYMDWVRQAPGKGLEWVAIIWFDGSSKYYVDSVKGRFTISRDNSKNTLYLQMNSLRAEDTAVYYCARELGRRYFDIWGRGTLVTVSS VL: EIVMTQSPATLSVSPGERATLSCRASQGVSSYLAWYQQKPGQAPRLLIYGASTRATGIPARFSGSGSGTEFTLTISSLQSEDFAVYYCQQRSRWPPWTFGQGTKLEIK | 33.4 nM | 0.000991 s⁻¹ | 29700 M⁻¹ s⁻¹ | 0.0565 nM | 6.9e-06 s⁻¹ | 122000 M⁻¹ s⁻¹ |
